Measurements published in the supplement of paper PMC12042874.
± gives the uncertainty stated by the source.

Assay: amyloid nucleation score (Sup35N fusion, yeast selection) (log enrichment); library NNK1; higher = more nucleation; inactive = no reads after selection
Outline: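 Nucleation score is defined as the DiMSum log enrichment of output over input reads, with centring on the mode score of non-aggregating sequences. A minimum of 100 input reads was required for each sequence. Reads came from Illumina sequencing of plasmid inserts from psi-negative yeast expressing Sup35N fused to peptides of 20 random codons, induced with 100 μM copper sulfate for 24 hours and grown 7 days at 30°C on medium lacking adenine and uracil.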

**Q.** With SLFLAGIMDIRGWYVVASTP as the substance, how does the amyloid nucleation score read?
**A.** -0.34 ± 0.54

**Q.** With LEMVINSFRELSLAY as the substance, how does the amyloid nucleation score read?
**A.** -0.212 ± 0.46

**Q.** Which amyloid nucleation score does the source give for FSYCEWRDKCCERWSFLDNQ here?
**A.** 1.11 ± 0.49

**Q.** With LYTHNSELNIKGSKVVHIEW as the substance, how does the amyloid nucleation score read?
**A.** 0.489 ± 0.4

**Q.** With YVAISHGQTPSLYL as the substance, how does the amyloid nucleation score read?
**A.** -0.827 ± 1.5

**Q.** For VPIFVNKFVDYTSLSCMHCL, which amyloid nucleation score is on record?
**A.** 7.379 ± 0.06

**Q.** For VLANDVVPNSIYKKVSITYC, which amyloid nucleation score is on record?
**A.** 0.884 ± 0.7

**Q.** For EEWFETGCENGCNVEGNRSC, which amyloid nucleation score is on record?
**A.** -0.117 ± 0.57

**Q.** Which amyloid nucleation score does the source give for LYYDSLYCHSFLWYGSLVLS here?
**A.** -0.06 ± 0.38

**Q.** Which amyloid nucleation score does the source give for NYFIVLSR here?
**A.** 2.09 ± 0.43

**Q.** For TISYLS, which amyloid nucleation score is on record?
**A.** 0.198 ± 0.39

**Q.** Which amyloid nucleation score does the source give for VFGVGGTYLFIDVEAVWGSG here?
**A.** 1.61 ± 0.57

**Q.** With GVLRHNCFIESGRIISVMVT as the substance, how does the amyloid nucleation score read?
**A.** -0.404 ± 0.65

**Q.** Which amyloid nucleation score does the source give for VFYFYYFDEMCVSSMNRLKL here?
**A.** -0.36 ± 0.27

**Q.** With CLNGMQPHKWFGMCVWVCPC as the substance, how does the amyloid nucleation score read?
**A.** -0.212 ± 0.58

**Q.** For AGVCYWTLDILPY, which amyloid nucleation score is on record?
**A.** 0.789 ± 0.9

**Q.** With IFLIVMFPLFNDCLHCYKTC as the substance, how does the amyloid nucleation score read?
**A.** 1.3 ± 0.13

**Q.** With GGLICTGNFY as the substance, how does the amyloid nucleation score read?
**A.** inactive

**Q.** For IFHSAVQTNLSGGCRAGVWL, which amyloid nucleation score is on record?
**A.** 0.254 ± 0.83

**Q.** For RVTVIIFTLSRGYIIMSRNR, which amyloid nucleation score is on record?
**A.** -1.12 ± 1.1

**Q.** Which amyloid nucleation score does the source give for LTLVNASSSRYEMSLFFQSI here?
**A.** 2.53 ± 0.12

**Q.** For YMKMMYAIYCLWLRHYSMLF, which amyloid nucleation score is on record?
**A.** inactive

**Q.** With CDIIYFACGDREV as the substance, how does the amyloid nucleation score read?
**A.** inactive

**Q.** Which amyloid nucleation score does the source give for VRMKIGNFSCCRYWKPPLYT here?
**A.** 1.29 ± 0.61

**Q.** For LGVRRPQEISCHADHASRWL, which amyloid nucleation score is on record?
**A.** -0.776 ± 1.3

**Q.** For FFAIVGRKVCRGSIHFWSIT, which amyloid nucleation score is on record?
**A.** 1.23 ± 0.61

**Q.** With PWYDRPRVSYSAFLVWIQLH as the substance, how does the amyloid nucleation score read?
**A.** -0.417 ± 0.93

**Q.** For GIQLTVFGLLLCFGTGLKVF, which amyloid nucleation score is on record?
**A.** 0.078 ± 0.6

**Q.** With FIDIACAHFGMKSCVVL as the substance, how does the amyloid nucleation score read?
**A.** 1.32 ± 0.9

**Q.** For PMTKCMLSSLGWCAHVPVRE, which amyloid nucleation score is on record?
**A.** 0.369 ± 0.52

**Q.** For HAKHLLRKQWLDGCA, which amyloid nucleation score is on record?
**A.** inactive

**Q.** With RFSKNE as the substance, how does the amyloid nucleation score read?
**A.** 0.523 ± 0.87

**Q.** Which amyloid nucleation score does the source give for SQCLSKLLSIDISRCWAGQM here?
**A.** 2.59 ± 0.46

**Q.** For LTQLYLVTSSTWVNYSYLKW, which amyloid nucleation score is on record?
**A.** 0.742 ± 0.58

**Q.** Which amyloid nucleation score does the source give for LGYIVRFQCMYTRRYCSCPD here?
**A.** -1.47 ± 2.7

**Q.** With NNMRVLLRFLSVVLGSGEVR as the substance, how does the amyloid nucleation score read?
**A.** 1.01 ± 0.67

**Q.** For YVSAGRCKYDDLPTRV, which amyloid nucleation score is on record?
**A.** 0.133 ± 0.67

**Q.** With MNMVCS as the substance, how does the amyloid nucleation score read?
**A.** 1.15 ± 0.58

**Q.** For LFDDS, which amyloid nucleation score is on record?
**A.** -0.356 ± 0.46

**Q.** With LQYGNWPGGVFVWWFIKMHH as the substance, how does the amyloid nucleation score read?
**A.** -0.02 ± 0.71

**Q.** Which amyloid nucleation score does the source give for HHAGPSG here?
**A.** 0.72 ± 0.46

**Q.** With CQRAFI as the substance, how does the amyloid nucleation score read?
**A.** -0.041 ± 0.77

**Q.** For VRSFDDLRVNVSRSRCAMAQ, which amyloid nucleation score is on record?
**A.** -0.906 ± 0.71

**Q.** For CSGNSSGVRCMVRSNRS, which amyloid nucleation score is on record?
**A.** 0.523 ± 0.38

**Q.** For LGQHRKPSYKHSAKHKLFVD, which amyloid nucleation score is on record?
**A.** 0.519 ± 0.36

**Q.** With KIPLNRIAVNASLRQRYCNP as the substance, how does the amyloid nucleation score read?
**A.** 0.122 ± 0.27

**Q.** Which amyloid nucleation score does the source give for SEKRR here?
**A.** 0.075 ± 0.26

**Q.** With CLAGLYNCGGR as the substance, how does the amyloid nucleation score read?
**A.** 0.679 ± 0.65

**Q.** For RDPYMCSLVRAGSGSKGTI, which amyloid nucleation score is on record?
**A.** 0.447 ± 0.56

**Q.** With EVDRWGICCPYW as the substance, how does the amyloid nucleation score read?
**A.** 1.88 ± 0.26

**Q.** With SSPIGSSSFTMGCGWREQ as the substance, how does the amyloid nucleation score read?
**A.** 0.599 ± 0.88

**Q.** For TVFWRYCSRVLNDKFGQFWV, which amyloid nucleation score is on record?
**A.** 0.043 ± 0.35

**Q.** Which amyloid nucleation score does the source give for NIEGRVYRIDSAGGPCIYVL here?
**A.** -0.621 ± 0.5

**Q.** Which amyloid nucleation score does the source give for SVKNYLCLMTTPFVFVLEM here?
**A.** 5.417 ± 0.049

**Q.** With ERSSAPECNFKYISYTGKS as the substance, how does the amyloid nucleation score read?
**A.** -0.881 ± 0.48

**Q.** For NWHGSLKPPYACEGALRVWR, which amyloid nucleation score is on record?
**A.** 6.26 ± 0.08

**Q.** For SIMSFH, which amyloid nucleation score is on record?
**A.** inactive

**Q.** For DGSYTTRGRGHGESGRSGCW, which amyloid nucleation score is on record?
**A.** 0.17 ± 0.42

**Q.** Which amyloid nucleation score does the source give for LAVEWWTNVVYVFYAYFANR here?
**A.** 0.001 ± 0.25

**Q.** With VQKKRLDGLVKRGLYIRAIG as the substance, how does the amyloid nucleation score read?
**A.** 1.2 ± 0.69

**Q.** With LCISARDLNNFGRNHMHFLL as the substance, how does the amyloid nucleation score read?
**A.** -0.296 ± 0.34

**Q.** Which amyloid nucleation score does the source give for YIKGDQLVVVDTYMFRVKL here?
**A.** -0.991 ± 2.4

**Q.** With KYLSYTVVCGLTNDSWHLMH as the substance, how does the amyloid nucleation score read?
**A.** -0.196 ± 0.46

**Q.** With SCYMHVR as the substance, how does the amyloid nucleation score read?
**A.** 0.372 ± 0.52

**Q.** For NILGIAHTIGCLLLTFCCTL, which amyloid nucleation score is on record?
**A.** inactive

**Q.** For CTWYLLVSSSRLLTDSFLPS, which amyloid nucleation score is on record?
**A.** 1.32 ± 0.6

**Q.** For LSFIACPYIVRVYAFNPRTG, which amyloid nucleation score is on record?
**A.** 6.16 ± 0.071

**Q.** Which amyloid nucleation score does the source give for LSDWYNLRRWRTVTWAQQLH here?
**A.** -0.4 ± 1.3

**Q.** Which amyloid nucleation score does the source give for WSNGF here?
**A.** 1.89 ± 0.45

**Q.** With IWNVTPRGFDSAD as the substance, how does the amyloid nucleation score read?
**A.** -0.345 ± 0.97

**Q.** Which amyloid nucleation score does the source give for LFGPDLSTRNPGDVSVQSAA here?
**A.** 0 ± 0.39

**Q.** For RVIGE, which amyloid nucleation score is on record?
**A.** 1.36 ± 0.49

**Q.** For RQFSSTRFCREHRITGMQLG, which amyloid nucleation score is on record?
**A.** 0.369 ± 0.79

**Q.** For YAKVSAIERRCWVMSVTYPD, which amyloid nucleation score is on record?
**A.** 0.171 ± 0.28

**Q.** With TTCCINSLMCTDTNSCIAGV as the substance, how does the amyloid nucleation score read?
**A.** 2.08 ± 0.6

**Q.** Which amyloid nucleation score does the source give for LQNVGRENEESTCERRSKVY here?
**A.** inactive

**Q.** For SRYSLTCRVLTWLPDNLVRR, which amyloid nucleation score is on record?
**A.** 0.07 ± 0.42

**Q.** Which amyloid nucleation score does the source give for FSGVTMR here?
**A.** 1.7 ± 0.32

**Q.** For SNTRFSCRSPWVCTFFVREV, which amyloid nucleation score is on record?
**A.** 0.085 ± 0.52

**Q.** For AKLWQY, which amyloid nucleation score is on record?
**A.** -0.185 ± 1.1

**Q.** With ACLGVTRGYSGPSTTKSFLR as the substance, how does the amyloid nucleation score read?
**A.** -0.238 ± 0.46

**Q.** With QFLLLPGNHHRFRSRHIRTL as the substance, how does the amyloid nucleation score read?
**A.** -0.255 ± 0.26

**Q.** For VLFLDI, which amyloid nucleation score is on record?
**A.** 0.793 ± 0.58

**Q.** With AMPADIILVVGLSCDDRREG as the substance, how does the amyloid nucleation score read?
**A.** 0.724 ± 0.52

**Q.** With PPSLQ as the substance, how does the amyloid nucleation score read?
**A.** -0.263 ± 1.4

**Q.** For SYTYCLVVG, which amyloid nucleation score is on record?
**A.** 0.157 ± 1.4

**Q.** Which amyloid nucleation score does the source give for SPGVDGWNPWVDTVLRKVSK here?
**A.** -0.776 ± 0.61
